The results in this text go back to the supplement of paper PMC5998384.

In series [1] the test system is HeLa Kyoto. In words: melting temperature (median over replicates), in situ; higher = more thermally stable.
The subject of series [2] is HeLa Kyoto. Nature of the series: thermal stability score vs G1/S (z-score of summed log2 fold changes over temperatures); higher = more thermally stable than in G1/S.
Series [3] relates to HeLa Kyoto. Nature of the series: solubility in G1/S (NP-40 vs SDS abundance) (log2 ratio); higher = more soluble. As to conditions: cell cycle stage: G1/S.
Series [4] relates to HeLa Kyoto. In words: solubility change mitosis vs G1/S (difference of NP-40 vs SDS log2 ratios) (log2 ratio difference); higher = more soluble in mitosis.
Where [5] appears, read: cell cycle stage: early G1 (4.5 h after nocodazole release).
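For melting temperature (median over replicates), in situ in this document: HeLa Kyoto cells synchronized by double thymidine or nocodazole block, proteins quantified by TMT10plex mass spectrometry, three independent biological replicates.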
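For solubility change mitosis vs G1/S (difference of NP-40 vs SDS log2 ratios) in this document: synchronized HeLa Kyoto cells (double thymidine block for G1/S, nocodazole release for mitosis), protein amounts in NP-40 versus SDS lysates quantified by mass spectrometry, three biological replicates.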
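For solubility in G1/S (NP-40 vs SDS abundance) in this document: HeLa Kyoto cells arrested at G1/S by double thymidine block, proteins quantified by TMT10plex mass spectrometry in mild NP-40 versus SDS extracts, three biological replicates.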
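For thermal stability score vs G1/S (z-score of summed log2 fold changes over temperatures) in this document: synchronized HeLa Kyoto cells, proteins quantified by TMT10plex mass spectrometry, three biological replicates, mitosis taken 0.5 h after nocodazole release, G1/S directly after double thymidine block.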

For “MESAAALHFSRPASLLLLLLSLCALVSAQFIVVGPTDPILATVGENTTLRCHLSPEKNAEDMEVRWFRSQFSPAVFVYKGGRERTEEQMEEYRGRTTFVSKDISRGSVALVIHNITAQENGTYRCYFQEGRSYDEAILHLVVAGLGSKPLISMRGHEDGGIRLECISRGWYPKPLTVWRDPYGGVAPALKEVSMPDADGLFMVTTAVIIRDKSVRNMSCSINNTLLGQKKESVIFIPESFMPSVSPCAVALPIIVVILMIPIAVCIYWINKLQKEKKILSGEKEFERETREIALKELEKERVQKEEELQVKEKLQEELRWRRTFLHAVDVVLDPDTAHPDLFLSEDRRSVRRCPFRHLGESVPDNPERFDSQPCVLGRESFASGKHYWEVEVENVIEWTVGVCRDSVERKGEVLLIPQNGFWTLEMHKGQYRAVSSPDRILPLKESLCRVGVFLDYEAGDVSFYNMRDRSHIYTCPRSAFSVPVRPFFRLGCEDSPIFICPALTGANGVTVPEEGLTLHRVGTHQSL [BTN2A1]”, the melting temperature worked out at 52.7 °C in series [1] (cell cycle stage: G1/S) and 53.4 °C in series [1] (cell cycle stage: mitosis). Moreover, the thermal stability score in series [2] (setting [5]) was -0.399; in series [2] (cell cycle stage: mitosis) it was -0.343. For the same sequence, the “solubility in G1/S (log2)” value in series [3] was -0.062. For the same sequence, the “solubility change mitosis (log2)” value in series [4] is -0.101.
As to “MKIFVGNVDGADTTPEELAALFAPYGTVMSCAVMKQFAFVHMRENAGALRAIEALHGHELRPGRALVVEMSRPRPLNTWKIFVGNVSAACTSQELRSLFERRGRVIECDVVKDYAFVHMEKEADAKAAIAQLNGKEVKGKRINVELSTKGQKKGPGLAVQSGDKTKKPGAGDTAFPGTGGFSATFDYQQAFGNSTGGFDGQARQPTPPFFGRDRSPLRRSPPRASYVAPLTAQPATYRAQPSVSLGAAYRAQPSASLGVGYRTQPMTAQAASYRAQPSVSLGAPYRGQLASPSSQSAAASSLGPYGGAQPSASALSSYGGQAAAASSLNSYGAQGSSLASYGNQPSSYGAQAASSYGVRAAASSYNTQGAASSLGSYGAQAASYGAQSAASSLAYGAQAASYNAQPSASYNAQSAPYAAQQAASYSSQPAAYVAQPATAAAYASQPAAYAAQATTPMAGSYGAQPVVQTQLNSYGAQASMGLSGSYGAQSAAAATGSYGAAAAYGAQPSATLAAPYRTQSSASLAASYAAQQHPQAAASYRGQPGNAYDGAGQPSAAYLSMSQGAVANANSTPPPYERTRLSPPRASYDDPYKKAVAMSKRYGSDRRLAELSDYRRLSESQLSFRRSPTKSSLDYRRLPDAHSDYARYSGSYNDYLRAAQMHSGYQRRM [RBM14]”, the melting temperature was 47.3 °C in series [1] (cell cycle stage: G1/S) and 46.1 °C in series [1] (cell cycle stage: mitosis). Moreover, the thermal stability score in series [2] (setting [5]) stood at 1.48; in series [2] (cell cycle stage: mitosis), 2.24. In series [3], the “solubility in G1/S (log2)” value was -0.765. In series [4], the “solubility change mitosis (log2)” value was determined as 0.332.
As to “MELRVGNKYRLGRKIGSGSFGDIYLGANIASGEEVAIKLECVKTKHPQLHIESKFYKMMQGGVGIPSIKWCGAEGDYNVMVMELLGPSLEDLFNFCSRKFSLKTVLLLADQMISRIEYIHSKNFIHRDVKPDNFLMGLGKKGNLVYIIDFGLAKKYRDARTHQHIPYRENKNLTGTARYASINTHLGIEQSRRDDLESLGYVLMYFNLGSLPWQGLKAATKRQKYERISEKKMSTPIEVLCKGYPSEFSTYLNFCRSLRFDDKPDYSYLRQLFRNLFHRQGFSYDYVFDWNMLKFGAARNPEDVDRERREHEREERMGQLRGSATRALPPGPPTGATANRLRSAAEPVASTPASRIQPAGNTSPRAISRVDRERKVSMRLHRGAPANVSSSDLTGRQEVSRIPASQTSVPFDHLGK [CSNK1E]”, the melting temperature came to 49.7 °C in series [1] (cell cycle stage: G1/S) and 49 °C in series [1] (cell cycle stage: mitosis). Also, the thermal stability score in series [2] (setting [5]) was 0.572; in series [2] (cell cycle stage: mitosis), 0.264. In addition, in series [3], the “solubility in G1/S (log2)” value was -0.212. Moreover, the “solubility change mitosis (log2)” value in series [4] was 0.102.
In the case of “MRSGGRGRPRLRLGERGLMEPLLPPKRRLLPRVRLLPLLLALAVGSAFYTIWSGWHRRTEELPLGRELRVPLIGSLPEARLRRVVGQLDPQRLWSTYLRPLLVVRTPGSPGNLQVRKFLEATLRSLTAGWHVELDPFTASTPLGPVDFGNVVATLDPRAARHLTLACHYDSKLFPPGSTPFVGATDSAVPCALLLELAQALDLELSRAKKQAAPVTLQLLFLDGEEALKEWGPKDSLYGSRHLAQLMESIPHSPGPTRIQAIELFMLLDLLGAPNPTFYSHFPRTVRWFHRLRSIEKRLHRLNLLQSHPQEVMYFQPGEPFGSVEDDHIPFLRRGVPVLHLISTPFPAVWHTPADTEVNLHPPTVHNLCRILAVFLAEYLGL [QPCTL]”, the melting temperature worked out at 51.9 °C in series [1] (cell cycle stage: G1/S) and 52.7 °C in series [1] (cell cycle stage: mitosis). The results for the thermal stability score in series [2] (setting [5]) and in series [2] (cell cycle stage: mitosis) were 3.48 and 4.18, respectively. For the same sequence, the “solubility in G1/S (log2)” value in series [3] is -0.29. Also, the “solubility change mitosis (log2)” value in series [4] is 0.00122.
Take “MATANFGKIQIGIYVEIKRSDGRIHQAMVTSLNEDNESVTVEWIENGDTKGKEIDLESIFSLNPDLVPDEEIEPSPETPPPPASSAKVNKIVKNRRTVASIKNDPPSRDNRVVGSARARPSQFPEQSSSAQQNGSVSDISPVQAAKKEFGPPSRRKSNCVKEVEKLQEKREKRRLQQQELREKRAQDVDATNPNYEIMCMIRDFRGSLDYRPLTTADPIDEHRICVCVRKRPLNKKETQMKDLDVITIPSKDVVMVHEPKQKVDLTRYLENQTFRFDYAFDDSAPNEMVYRFTARPLVETIFERGMATCFAYGQTGSGKTHTMGGDFSGKNQDCSKGIYALAARDVFLMLKKPNYKKLELQVYATFFEIYSGKVFDLLNRKTKLRVLEDGKQQVQVVGLQEREVKCVEDVLKLIDIGNSCRTSGQTSANAHSSRSHAVFQIILRRKGKLHGKFSLIDLAGNERGADTSSADRQTRLEGAEINKSLLALKECIRALGRNKPHTPFRASKLTQVLRDSFIGENSRTCMIATISPGMASCENTLNTLRYANRVKELTVDPTAAGDVRPIMHHPPNQIDDLETQWGVGSSPQRDDLKLLCEQNEEEVSPQLFTFHEAVSQMVEMEEQVVEDHRAVFQESIRWLEDEKALLEMTEEVDYDVDSYATQLEAILEQKIDILTELRDKVKSFRAALQEEEQASKQINPKRPRAL [KIF2A]”: the melting temperature amounted to 50 °C in series [1] (cell cycle stage: G1/S) and 50.1 °C in series [1] (cell cycle stage: mitosis). In addition, the thermal stability score in series [2] (setting [5]) turned out to be 1.7; in series [2] (cell cycle stage: mitosis) it was 1.64. Also, the “solubility in G1/S (log2)” value in series [3] was -0.149. Further, the “solubility change mitosis (log2)” value in series [4] was -0.0102.
With “MADKEKKKKESILDLSKYIDKTIRVKFQGGREASGILKGFDPLLNLVLDGTIEYMRDPDDQYKLTEDTRQLGLVVCRGTSVVLICPQDGMEAIPNPFIQQQDA [LSM7]”, the melting temperature in series [1] (cell cycle stage: G1/S) is 55.3 °C; in series [1] (cell cycle stage: mitosis) it was 53.7 °C. Besides, the thermal stability score was -1.51 in series [2] (setting [5]) and -2.73 in series [2] (cell cycle stage: mitosis). Also, in series [3], the “solubility in G1/S (log2)” value turned out to be 0.0991. The “solubility change mitosis (log2)” value in series [4] worked out at 0.227.
As to “MSGELPPNINIKEPRWDQSTFIGRANHFFTVTDPRNILLTNEQLESARKIVHDYRQGIVPPGLTENELWRAKYIYDSAFHPDTGEKMILIGRMSAQVPMNMTITGCMMTFYRTTPAVLFWQWINQSFNAVVNYTNRSGDAPLTVNELGTAYVSATTGAVATALGLNALTKHVSPLIGRFVPFAAVAAANCINIPLMRQRELKVGIPVTDENGNRLGESANAAKQAITQVVVSRILMAAPGMAIPPFIMNTLEKKAFLKRFPWMSAPIQVGLVGFCLVFATPLCCALFPQKSSMSVTSLEAELQAKIQESHPELRRVYFNKGL [SFXN1]”, the melting temperature in series [1] (cell cycle stage: G1/S) came to 54.4 °C; in series [1] (cell cycle stage: mitosis), 54.8 °C. Besides, the thermal stability score in series [2] (setting [5]) is -0.303; in series [2] (cell cycle stage: mitosis), -0.959. Besides, the “solubility in G1/S (log2)” value in series [3] stood at 0.371. Besides, the “solubility change mitosis (log2)” value in series [4] was -0.0506.
For the sequence “MADEGKSYSEHDDERVNFPQRKKKGRGPFRWKYGEGNRRSGRGGSGIRSSRLEEDDGDVAMSDAQDGPRVRYNPYTTRPNRRGDTWHDRDRIHVTVRRDRAPPERGGAGTSQDGTSKNWFKITIPYGRKYDKAWLLSMIQSKCSVPFTPIEFHYENTRAQFFVEDASTASALKAVNYKILDRENRRISIIINSSAPPHTILNELKPEQVEQLKLIMSKRYDGSQQALDLKGLRSDPDLVAQNIDVVLNRRSCMAATLRIIEENIPELLSLNLSNNRLYRLDDMSSIVQKAPNLKILNLSGNELKSERELDKIKGLKLEELWLDGNSLCDTFRDQSTYISAIRERFPKLLRLDGHELPPPIAFDVEAPTTLPPCKGSYFGTENLKSLVLHFLQQYYAIYDSGDRQGLLDAYHDGACCSLSIPFIPQNPARSSLAEYFKDSRNVKKLKDPTLRFRLLKHTRLNVVAFLNELPKTQHDVNSFVVDISAQTSTLLCFSVNGVFKEVDGKSRDSLRAFTRTFIAVPASNSGLCIVNDELFVRNASSEEIQRAFAMPAPTPSSSPVPTLSPEQQEMLQAFSTQSGMNLEWSQKCLQDNNWDYTRSAQAFTHLKAKGEIPEVAFMK [NXF1]”, the melting temperature in series [1] (cell cycle stage: G1/S) is 47.3 °C; in series [1] (cell cycle stage: mitosis) it was 49.1 °C. The thermal stability score amounted to 1.64 in series [2] (setting [5]) and 4.14 in series [2] (cell cycle stage: mitosis). For the same sequence, in series [3], the “solubility in G1/S (log2)” value is -0.89. Further, the “solubility change mitosis (log2)” value in series [4] came out at 0.533.
As for “MKKMSRNVLLQMEEEEDDDDGDIVLENLGQTIVPDLGSLESQHDFRTPEFEEFNGKPDSLFFNDGQRRIDFVLVYEDESRKETNKKGTNEKQRRKRQAYESNLICHGLQLEATRSVLDDKLVFVKVHAPWEVLCTYAEIMHIKLPLKPNDLKNRSSAFGTLNWFTKVLSVDESIIKPEQEFFTAPFEKNRMNDFYIVDRDAFFNPATRSRIVYFILSRVKYQVINNVSKFGINRLVNSGIYKAAFPLHDCKFRRQSEDPSCPNERYLLYREWAHPRSIYKKQPLDLIRKYYGEKIGIYFAWLGYYTQMLLLAAVVGVACFLYGYLNQDNCTWSKEVCHPDIGGKIIMCPQCDRLCPFWKLNITCESSKKLCIFDSFGTLVFAVFMGVWVTLFLEFWKRRQAELEYEWDTVELQQEEQARPEYEARCTHVVINEITQEEERIPFTAWGKCIRITLCASAVFFWILLIIASVIGIIVYRLSVFIVFSAKLPKNINGTDPIQKYLTPQTATSITASIISFIIIMILNTIYEKVAIMITNFELPRTQTDYENSLTMKMFLFQFVNYYSSCFYIAFFKGKFVGYPGDPVYWLGKYRNEECDPGGCLLELTTQLTIIMGGKAIWNNIQEVLLPWIMNLIGRFHRVSGSEKITPRWEQDYHLQPMGKLGLFYEYLEMIIQFGFVTLFVASFPLAPLLALVNNILEIRVDAWKLTTQFRRLVPEKAQDIGAWQPIMQGIAILAVVTNAMIIAFTSDMIPRLVYYWSFSVPPYGDHTSYTMEGYINNTLSIFKVADFKNKSKGNPYSDLGNHTTCRYRDFRYPPGHPQEYKHNIYYWHVIAAKLAFIIVMEHVIYSVKFFISYAIPDVSKRTKSKIQREKYLTQKLLHENHLKDMTKNMGVIAERMIEAVDNNLRPKSE [ANO6]”, the melting temperature in series [1] (cell cycle stage: G1/S) turned out to be 54.6 °C; in series [1] (cell cycle stage: mitosis), 54.3 °C. Further, the values for the thermal stability score in series [2] (setting [5]) and in series [2] (cell cycle stage: mitosis) were 0.734 and 0.413, respectively. Also, the “solubility in G1/S (log2)” value in series [3] was 0.0135. For the same sequence, in series [4], the “solubility change mitosis (log2)” value was -0.0681.
